T1: DFNB31_3, Q9P202
T1 sequence (Q9P202 811-907, limits assumed, looked up): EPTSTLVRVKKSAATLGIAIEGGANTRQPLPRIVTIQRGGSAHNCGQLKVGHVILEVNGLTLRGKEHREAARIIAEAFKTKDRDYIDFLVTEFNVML

T2: SNTA1, Q13424
T2 sequence (Q13424 82-180, limits assumed, looked up): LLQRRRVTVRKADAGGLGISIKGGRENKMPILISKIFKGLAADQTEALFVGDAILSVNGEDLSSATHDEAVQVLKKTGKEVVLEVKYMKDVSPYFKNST

T3: ARHGEF11, O15085
T3 sequence (O15085 42-136, limits assumed, looked up): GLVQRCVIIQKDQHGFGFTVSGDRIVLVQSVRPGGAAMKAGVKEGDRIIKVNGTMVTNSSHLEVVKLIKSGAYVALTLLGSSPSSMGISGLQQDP

T4: CARD11, Q9BXL7
T4 sequence (Q9BXL7 662-765, limits assumed, looked up): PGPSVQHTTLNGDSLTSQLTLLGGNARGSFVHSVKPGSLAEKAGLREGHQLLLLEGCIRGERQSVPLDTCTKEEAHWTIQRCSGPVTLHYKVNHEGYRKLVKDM

T5: RADIL, Q96JH8
T5 sequence (Q96JH8 971-1071, limits assumed, looked up): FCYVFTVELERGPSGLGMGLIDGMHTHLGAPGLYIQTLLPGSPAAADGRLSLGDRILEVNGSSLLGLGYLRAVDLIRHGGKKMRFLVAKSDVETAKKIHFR

T6: GRIP1_3, Q9Y3R0
T6 sequence (Q9Y3R0 247-346, limits assumed, looked up): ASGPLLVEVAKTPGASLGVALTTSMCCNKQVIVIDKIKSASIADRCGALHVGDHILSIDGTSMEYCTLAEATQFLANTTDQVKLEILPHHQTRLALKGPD

T7: NHERF3_1, Q5T2W1
T7 sequence (Q5T2W1 4-100, limits assumed, looked up): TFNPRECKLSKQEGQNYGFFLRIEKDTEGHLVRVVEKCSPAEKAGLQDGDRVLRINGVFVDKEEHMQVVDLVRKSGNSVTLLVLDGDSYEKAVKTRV

T8: MPDZ_10, O75970
T8 sequence (O75970 1624-1722, limits assumed, looked up): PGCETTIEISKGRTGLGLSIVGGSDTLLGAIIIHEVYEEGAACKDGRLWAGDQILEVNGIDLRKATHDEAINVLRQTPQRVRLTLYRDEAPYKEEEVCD

T9: GRIP1_5, Q9Y3R0
T9 sequence (Q9Y3R0 568-668, limits assumed, looked up): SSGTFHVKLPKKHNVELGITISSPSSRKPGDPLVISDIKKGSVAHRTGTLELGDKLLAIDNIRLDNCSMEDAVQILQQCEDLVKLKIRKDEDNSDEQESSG

T10: LNX2_3, Q8N448
T10 sequence (Q8N448 463-564, limits assumed, looked up): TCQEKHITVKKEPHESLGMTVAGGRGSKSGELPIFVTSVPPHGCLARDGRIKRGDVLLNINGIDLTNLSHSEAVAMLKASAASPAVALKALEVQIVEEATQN

B1: UNC93A, Q86WB7 (peptide)
chain: AEDEEIQTKM

These binders were tested against T1, DFNB31_3, Q9P202 (assay: holdup assay). Details: plain residues with an end cap or a label only (N-terminal biotin on a linker: ado-ado).
Design: key: below the threshold = too weak to quantify, mostly under pKd 3.1 to 4
A pKd of 3.88 was found for B1 in this work.

The binders below were run against T2, SNTA1, Q13424 (assay: holdup assay). Details: plain residues with an end cap or a label only (N-terminal biotin on a linker: ado-ado).
Design: key: below the threshold = too weak to quantify, mostly under pKd 3.1 to 4
In the case of B1, the pKd is reported as “below the threshold”.

What follows are binders tested against T3, ARHGEF11, O15085 (assay: holdup assay). Details: plain residues with an end cap or a label only (N-terminal biotin on a linker: ado-ado).
Design: key: below the threshold = too weak to quantify, mostly under pKd 3.1 to 4
B1 was tested, and the pKd was “below the threshold”.

The binders below were run against SCRIB_3, Q14160 (assay: holdup assay). Details: plain residues with an end cap or a label only (N-terminal biotin on a linker: ado-ado).
SCRIB_3, Q14160, sequence (Q14160 999-1103): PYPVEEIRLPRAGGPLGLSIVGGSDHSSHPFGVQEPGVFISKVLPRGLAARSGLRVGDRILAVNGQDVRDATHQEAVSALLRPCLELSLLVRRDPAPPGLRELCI
Design: key: below the threshold = too weak to quantify, mostly under pKd 3.1 to 4
B1 was tested, and the pKd was “below the threshold”.

These binders were tested against T4, CARD11, Q9BXL7 (assay: holdup assay). Details: plain residues with an end cap or a label only (N-terminal biotin on a linker: ado-ado).
Design: key: below the threshold = too weak to quantify, mostly under pKd 3.1 to 4
With B1 the pKd was “below the threshold”.

The binders below were run against MAGI2_5, Q86UL8 (assay: holdup assay). Details: plain residues with an end cap or a label only (N-terminal biotin on a linker: ado-ado).
MAGI2_5, Q86UL8, sequence (Q86UL8 915-1017): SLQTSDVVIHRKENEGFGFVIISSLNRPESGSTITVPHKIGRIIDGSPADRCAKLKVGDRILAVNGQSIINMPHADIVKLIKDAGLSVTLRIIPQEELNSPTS
Design: key: below the threshold = too weak to quantify, mostly under pKd 3.1 to 4
In the case of B1, the pKd is reported as “below the threshold”.

The binders below were run against GRIP2_3, Q9C0E4 (assay: holdup assay). Details: plain residues with an end cap or a label only (N-terminal biotin on a linker: ado-ado).
GRIP2_3, Q9C0E4, sequence (Q9C0E4 238-339): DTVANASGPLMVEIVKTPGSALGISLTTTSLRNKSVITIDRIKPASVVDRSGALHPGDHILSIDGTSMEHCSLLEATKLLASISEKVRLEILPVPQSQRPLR
Design: key: below the threshold = too weak to quantify, mostly under pKd 3.1 to 4
In the case of B1, the pKd is reported as “below the threshold”.

What follows are binders tested against MAGI2_6, Q86UL8 (assay: holdup assay). Details: plain residues with an end cap or a label only (N-terminal biotin on a linker: ado-ado).
MAGI2_6, Q86UL8, sequence (Q86UL8 1141-1229): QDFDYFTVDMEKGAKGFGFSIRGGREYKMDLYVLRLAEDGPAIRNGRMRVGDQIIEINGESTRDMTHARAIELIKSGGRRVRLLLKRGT
Design: key: below the threshold = too weak to quantify, mostly under pKd 3.1 to 4
With B1 the pKd was “below the threshold”.

The binders below were run against GRIP2_5, Q9C0E4 (assay: holdup assay). Details: plain residues with an end cap or a label only (N-terminal biotin on a linker: ado-ado).
GRIP2_5, Q9C0E4, sequence (Q9C0E4 544-642): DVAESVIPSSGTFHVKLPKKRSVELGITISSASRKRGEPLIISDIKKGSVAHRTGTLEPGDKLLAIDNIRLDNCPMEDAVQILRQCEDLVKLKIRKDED
Design: key: below the threshold = too weak to quantify, mostly under pKd 3.1 to 4
In the case of B1, the pKd is reported as “below the threshold”.

Each binder was assayed against NHERF4_2, Q86UT5 (assay: holdup assay). Details: plain residues with an end cap or a label only (N-terminal biotin on a linker: ado-ado).
NHERF4_2, Q86UT5, sequence (Q86UT5 220-308): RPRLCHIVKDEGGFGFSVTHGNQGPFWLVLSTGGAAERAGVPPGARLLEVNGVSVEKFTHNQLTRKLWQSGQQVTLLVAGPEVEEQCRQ
Design: key: below the threshold = too weak to quantify, mostly under pKd 3.1 to 4
In the case of B1, the pKd is reported as “below the threshold”.

What follows are binders tested against T5, RADIL, Q96JH8 (assay: holdup assay). Details: plain residues with an end cap or a label only (N-terminal biotin on a linker: ado-ado).
Design: key: below the threshold = too weak to quantify, mostly under pKd 3.1 to 4
B1 was tested, and the pKd was “below the threshold”.

Each binder was assayed against FRMPD2_2, Q68DX3 (assay: holdup assay). Details: plain residues with an end cap or a label only (N-terminal biotin on a linker: ado-ado).
FRMPD2_2, Q68DX3, sequence (Q68DX3 944-1038): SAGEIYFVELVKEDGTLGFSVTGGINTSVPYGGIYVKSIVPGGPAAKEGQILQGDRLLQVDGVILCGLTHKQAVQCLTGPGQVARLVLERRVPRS
Design: key: below the threshold = too weak to quantify, mostly under pKd 3.1 to 4
In the case of B1, the pKd is reported as “below the threshold”.

The binders below were run against DLG2_3, Q15700 (assay: holdup assay). Details: plain residues with an end cap or a label only (N-terminal biotin on a linker: ado-ado).
Design: key: below the threshold = too weak to quantify, mostly under pKd 3.1 to 4
B1 was tested, and the pKd was “below the threshold”.

These binders were tested against GORASP1, Q9BQQ3 (assay: holdup assay). Details: plain residues with an end cap or a label only (N-terminal biotin on a linker: ado-ado).
GORASP1, Q9BQQ3, sequence (Q9BQQ3 1-208): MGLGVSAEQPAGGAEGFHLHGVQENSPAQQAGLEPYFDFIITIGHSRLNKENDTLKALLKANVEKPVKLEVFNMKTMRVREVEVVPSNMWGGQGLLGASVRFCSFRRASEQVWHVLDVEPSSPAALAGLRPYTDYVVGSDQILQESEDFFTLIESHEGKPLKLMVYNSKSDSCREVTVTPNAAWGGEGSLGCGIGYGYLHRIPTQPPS
Design: key: below the threshold = too weak to quantify, mostly under pKd 3.1 to 4
With B1 the pKd was “below the threshold”.

The binders below were run against T6, GRIP1_3, Q9Y3R0 (assay: holdup assay). Details: plain residues with an end cap or a label only (N-terminal biotin on a linker: ado-ado).
Design: key: below the threshold = too weak to quantify, mostly under pKd 3.1 to 4
For B1, the pKd was “below the threshold”.

The binders below were run against T7, NHERF3_1, Q5T2W1 (assay: holdup assay). Details: plain residues with an end cap or a label only (N-terminal biotin on a linker: ado-ado).
Design: key: below the threshold = too weak to quantify, mostly under pKd 3.1 to 4
A pKd of 5.39 was found for B1 in this work.

What follows are binders tested against MAGI3_2, Q5TCQ9 (assay: holdup assay). Details: plain residues with an end cap or a label only (N-terminal biotin on a linker: ado-ado).
MAGI3_2, Q5TCQ9, sequence (Q5TCQ9 398-503): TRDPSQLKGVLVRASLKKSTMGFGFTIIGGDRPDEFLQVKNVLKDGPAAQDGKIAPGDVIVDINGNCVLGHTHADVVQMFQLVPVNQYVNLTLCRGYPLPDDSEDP
Design: key: below the threshold = too weak to quantify, mostly under pKd 3.1 to 4
In the case of B1, the pKd is reported as “below the threshold”.

What follows are binders tested against Inadl_4, Q8NI35 (assay: holdup assay). Details: plain residues with an end cap or a label only (N-terminal biotin on a linker: ado-ado).
Inadl_4, Q8NI35, sequence (Q8NI35 547-651): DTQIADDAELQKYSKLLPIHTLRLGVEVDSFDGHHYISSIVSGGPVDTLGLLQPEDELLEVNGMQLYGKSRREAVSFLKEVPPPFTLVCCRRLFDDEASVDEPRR
Design: key: below the threshold = too weak to quantify, mostly under pKd 3.1 to 4
With B1 the pKd was “below the threshold”.

These binders were tested against T8, MPDZ_10, O75970 (assay: holdup assay). Details: plain residues with an end cap or a label only (N-terminal biotin on a linker: ado-ado).
Design: key: below the threshold = too weak to quantify, mostly under pKd 3.1 to 4
For B1, the pKd was “below the threshold”.

These binders were tested against DLG1_2, Q12959 (assay: holdup assay). Details: plain residues with an end cap or a label only (N-terminal biotin on a linker: ado-ado).
DLG1_2, Q12959, sequence (Q12959 314-412): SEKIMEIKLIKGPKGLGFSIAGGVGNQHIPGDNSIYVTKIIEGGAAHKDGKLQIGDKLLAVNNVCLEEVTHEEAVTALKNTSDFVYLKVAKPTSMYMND
Design: key: below the threshold = too weak to quantify, mostly under pKd 3.1 to 4
B1 was tested, and the pKd was “below the threshold”.

These binders were tested against DLG1_3, Q12959 (assay: holdup assay). Details: plain residues with an end cap or a label only (N-terminal biotin on a linker: ado-ado).
DLG1_3, Q12959, sequence (Q12959 457-571): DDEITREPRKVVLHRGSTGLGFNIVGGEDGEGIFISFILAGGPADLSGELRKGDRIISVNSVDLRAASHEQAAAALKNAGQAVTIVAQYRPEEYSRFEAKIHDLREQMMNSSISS
Design: key: below the threshold = too weak to quantify, mostly under pKd 3.1 to 4
With B1 the pKd was “below the threshold”.

What follows are binders tested against PTPN3, P26045 (assay: holdup assay). Details: plain residues with an end cap or a label only (N-terminal biotin on a linker: ado-ado).
PTPN3, P26045, sequence (P26045 505-587): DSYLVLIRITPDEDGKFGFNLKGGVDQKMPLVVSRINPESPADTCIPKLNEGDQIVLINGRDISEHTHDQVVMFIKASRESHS
Design: key: below the threshold = too weak to quantify, mostly under pKd 3.1 to 4
A pKd of 4.17 was found for B1 in this work.

What follows are binders tested against T9, GRIP1_5, Q9Y3R0 (assay: holdup assay). Details: plain residues with an end cap or a label only (N-terminal biotin on a linker: ado-ado).
Design: key: below the threshold = too weak to quantify, mostly under pKd 3.1 to 4
B1 was tested, and the pKd was “below the threshold”.

These binders were tested against MAGI2_2, Q86UL8 (assay: holdup assay). Details: plain residues with an end cap or a label only (N-terminal biotin on a linker: ado-ado).
MAGI2_2, Q86UL8, sequence (Q86UL8 410-522): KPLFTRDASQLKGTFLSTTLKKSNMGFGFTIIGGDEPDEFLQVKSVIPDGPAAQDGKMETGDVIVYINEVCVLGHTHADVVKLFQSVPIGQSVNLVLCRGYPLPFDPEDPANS
Design: key: below the threshold = too weak to quantify, mostly under pKd 3.1 to 4
With B1 the pKd was “below the threshold”.

What follows are binders tested against T10, LNX2_3, Q8N448 (assay: holdup assay). Details: plain residues with an end cap or a label only (N-terminal biotin on a linker: ado-ado).
Design: key: below the threshold = too weak to quantify, mostly under pKd 3.1 to 4
B1 was tested, and the pKd was “below the threshold”.

What follows are binders tested against Inadl_1, Q8NI35 (assay: holdup assay). Details: plain residues with an end cap or a label only (N-terminal biotin on a linker: ado-ado).
Inadl_1, Q8NI35, sequence (Q8NI35 113-229): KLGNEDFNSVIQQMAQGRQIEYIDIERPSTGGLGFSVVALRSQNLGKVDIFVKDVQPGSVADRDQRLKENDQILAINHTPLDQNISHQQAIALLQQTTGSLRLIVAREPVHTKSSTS
Design: key: below the threshold = too weak to quantify, mostly under pKd 3.1 to 4
For B1, the pKd was “below the threshold”.

What follows are binders tested against HTRA2, O43464 (assay: holdup assay). Details: plain residues with an end cap or a label only (N-terminal biotin on a linker: ado-ado).
HTRA2, O43464, sequence (O43464 355-458): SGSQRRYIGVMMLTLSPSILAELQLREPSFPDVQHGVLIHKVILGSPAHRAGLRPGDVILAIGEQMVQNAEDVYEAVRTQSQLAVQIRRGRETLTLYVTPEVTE
Design: key: below the threshold = too weak to quantify, mostly under pKd 3.1 to 4
For B1, the pKd was “below the threshold”.

Reference: paper PMC9482650, “Quantitative fragmentomics allow affinity mapping of interactomes” (Nature Communications, 2022)
